Results on two substances are retold here after article doi:10.1101/2025.01.24.634724, “Receptor Activity-Modifying Protein 3 enhances GLP-1-mediated Insulin Secretion” (bioRxiv, 2025).

One assay has as its target Nluc-GLP-1R (human) (UniProt P43220).
For assay [1], the target named is Nluc-GLP-1R co-expressed with FLAG-RAMP3 (UniProt P43220).
Chain of Nluc-GLP-1R co-expressed with FLAG-RAMP3 (P43220 24-463, chain 1 of 2): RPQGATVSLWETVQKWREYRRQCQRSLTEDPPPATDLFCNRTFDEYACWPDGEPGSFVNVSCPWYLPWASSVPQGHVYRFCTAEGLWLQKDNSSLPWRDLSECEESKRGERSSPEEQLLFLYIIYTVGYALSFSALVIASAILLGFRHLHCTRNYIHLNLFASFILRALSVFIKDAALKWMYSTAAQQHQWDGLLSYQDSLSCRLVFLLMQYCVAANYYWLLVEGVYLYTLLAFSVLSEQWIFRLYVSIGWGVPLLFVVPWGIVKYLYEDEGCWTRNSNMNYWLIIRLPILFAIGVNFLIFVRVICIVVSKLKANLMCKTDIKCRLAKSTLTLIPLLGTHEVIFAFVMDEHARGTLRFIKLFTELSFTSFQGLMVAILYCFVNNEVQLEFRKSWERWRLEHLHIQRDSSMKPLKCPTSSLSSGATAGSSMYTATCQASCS
Chain of Nluc-GLP-1R co-expressed with FLAG-RAMP3 (O60896 24-148, chain 2 of 2, further chain): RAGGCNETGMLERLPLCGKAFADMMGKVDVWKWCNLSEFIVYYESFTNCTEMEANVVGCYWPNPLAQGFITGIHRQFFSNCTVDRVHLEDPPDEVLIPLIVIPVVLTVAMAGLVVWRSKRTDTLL

Chain of Nluc-GLP-1R (human) (P43220 24-463): as the sequence (P43220 24-463, chain 1 of 2) above

In the assay with Nluc-GLP-1R (human), “exendin-4 (from UniProt P26349 48-87) (peptide)” registered a (Ca2+)i mobilisation in HEK293T cells, maximal response, receptor without RAMP3 (percent of 10 μM ionomycin) of 43.6.
In assay [1], GLP-1 (7–36amide) (peptide) yielded a (Ca2+)i mobilisation in HEK293T cells, pEC50, RAMP3 over-expressed (2:1) of 8.1 pEC50. The same substance had a (Ca2+)i mobilisation in HEK293T cells, pEC50, receptor without RAMP3 in the assay with Nluc-GLP-1R (human) of 7.2 pEC50.
